Experimental data from the supplement of paper PMC9112550, “Optimization of the antimicrobial peptide Bac7 by deep mutational scanning” (BMC Biology, 2022).

Test system: Escherichia coli TOP10
Assay: shrunken log2 fold change of peptide-encoding DNA abundance (4.5 h post-induction vs induction); higher = less antimicrobial activity (less host growth inhibition)
Details: time post-induction: 4.5 h; library: site-saturation at positions 5, 18, 19, 20
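Further: peptides expressed intracellularly from a pBAD plasmid library in pooled LB shake-flask culture, induced with 0.3% L-arabinose, DNA abundance read by NGS, three biological replicates, DESeq2 with apeglm shrinkage.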

Row | Sequence | shrunken log2 fold change
1 | RRIRMRPPRLPRPRPRPPLGPRP | 1.08
2 | RRIRMRPPRLPRPRPRPPLVPRP | 0.36
3 | RRIRMRPPRLPRPRPRPPMCPRP | 0.293
4 | RRIRMRPPRLPRPRPRPPMKPRP | -0.0709
5 | RRIRMRPPRLPRPRPRPPNFPRP | 0.35
6 | RRIRMRPPRLPRPRPRPPPEPRP | 1.82
7 | RRIRMRPPRLPRPRPRPPQHPRP | 0.817
8 | RRIRMRPPRLPRPRPRPPQKPRP | 0.173
9 | RRIRMRPPRLPRPRPRPPRHPRP | 0.955
10 | RRIRMRPPRLPRPRPRPPRKPRP | 1.49
11 | RRIRMRPPRLPRPRPRPPSFPRP | -0.0206
12 | RRIRMRPPRLPRPRPRPPTRPRP | 1.25
13 | RRIRMRPPRLPRPRPRPPWDPRP | 0.931
14 | RRIRMRPPRLPRPRPRPPYHPRP | -0.0913
15 | RRIRMRPPRLPRPRPRPPYTPRP | -0.0678
16 | RRIRMRPPRLPRPRPRPPYYPRP | -0.243
17 | RRIRMRPPRLPRPRPRPQCWPRP | 0.14
18 | RRIRMRPPRLPRPRPRPQDKPRP | 0.132
19 | RRIRMRPPRLPRPRPRPQDNPRP | 0.013
20 | RRIRMRPPRLPRPRPRPQDYPRP | -0.0945
21 | RRIRMRPPRLPRPRPRPQETPRP | -0.00161
22 | RRIRMRPPRLPRPRPRPQFNPRP | -0.661
23 | RRIRMRPPRLPRPRPRPQGRPRP | 0.113
24 | RRIRMRPPRLPRPRPRPQGYPRP | 0.0234
25 | RRIRMRPPRLPRPRPRPQKDPRP | 0.0308

Row | Sequence | shrunken log2 fold change
26 | RRIRMRPPRLPRPRPRPQLEPRP | 0.0634
27 | RRIRMRPPRLPRPRPRPQLNPRP | 0.158
28 | RRIRMRPPRLPRPRPRPQMEPRP | 0.0809
29 | RRIRMRPPRLPRPRPRPQNQPRP | -0.183
30 | RRIRMRPPRLPRPRPRPQNRPRP | -0.0361
31 | RRIRMRPPRLPRPRPRPQNSPRP | -0.0933
32 | RRIRMRPPRLPRPRPRPQNTPRP | 0.0152
33 | RRIRMRPPRLPRPRPRPQQMPRP | -0.0302
34 | RRIRMRPPRLPRPRPRPQQNPRP | 0.281
35 | RRIRMRPPRLPRPRPRPQSAPRP | 0.055
36 | RRIRMRPPRLPRPRPRPQSEPRP | 0.446
37 | RRIRMRPPRLPRPRPRPQTEPRP | 0.12
38 | RRIRMRPPRLPRPRPRPQTQPRP | 2.46
39 | RRIRMRPPRLPRPRPRPQWSPRP | 0.0117
40 | RRIRMRPPRLPRPRPRPRCAPRP | 1.12
41 | RRIRMRPPRLPRPRPRPRCKPRP | 0.198
42 | RRIRMRPPRLPRPRPRPRDSPRP | 0.117
43 | RRIRMRPPRLPRPRPRPRFMPRP | 0.385
44 | RRIRMRPPRLPRPRPRPRGEPRP | 0.0602
45 | RRIRMRPPRLPRPRPRPRKEPRP | 0.704
46 | RRIRMRPPRLPRPRPRPRKNPRP | 0.433
47 | RRIRMRPPRLPRPRPRPRKPPRP | 0.915
48 | RRIRMRPPRLPRPRPRPRMLPRP | 0.465
49 | RRIRMRPPRLPRPRPRPRNFPRP | 1.12
50 | RRIRMRPPRLPRPRPRPRNWPRP | 0.788

Row | Sequence | shrunken log2 fold change
51 | RRIRMRPPRLPRPRPRPRPPPRP | 1.55
52 | RRIRMRPPRLPRPRPRPRQGPRP | -0.0232
53 | RRIRMRPPRLPRPRPRPRSQPRP | 0.108
54 | RRIRMRPPRLPRPRPRPRSTPRP | 0.888
55 | RRIRMRPPRLPRPRPRPRTCPRP | 0.00872
56 | RRIRMRPPRLPRPRPRPRVEPRP | 0.379
57 | RRIRMRPPRLPRPRPRPRVWPRP | 2.08
58 | RRIRMRPPRLPRPRPRPRWAPRP | 1.3
59 | RRIRMRPPRLPRPRPRPRWFPRP | 0.717
60 | RRIRMRPPRLPRPRPRPRYWPRP | -0.14
61 | RRIRMRPPRLPRPRPRPSAQPRP | 0.623
62 | RRIRMRPPRLPRPRPRPSCPPRP | -0.0916
63 | RRIRMRPPRLPRPRPRPSECPRP | 0.0809
64 | RRIRMRPPRLPRPRPRPSEDPRP | 0.974
65 | RRIRMRPPRLPRPRPRPSENPRP | -0.0243
66 | RRIRMRPPRLPRPRPRPSFQPRP | -0.283
67 | RRIRMRPPRLPRPRPRPSGCPRP | 0.44
68 | RRIRMRPPRLPRPRPRPSGNPRP | -0.14
69 | RRIRMRPPRLPRPRPRPSHKPRP | -0.183
70 | RRIRMRPPRLPRPRPRPSISPRP | 0.000307
71 | RRIRMRPPRLPRPRPRPSLYPRP | -0.126
72 | RRIRMRPPRLPRPRPRPSMDPRP | 0.0865
73 | RRIRMRPPRLPRPRPRPSNGPRP | -0.0373
74 | RRIRMRPPRLPRPRPRPSNKPRP | 0.0232
75 | RRIRMRPPRLPRPRPRPSNLPRP | 0.00954

Row | Sequence | shrunken log2 fold change
76 | RRIRMRPPRLPRPRPRPSNRPRP | -0.0397
77 | RRIRMRPPRLPRPRPRPSNVPRP | -0.259
78 | RRIRMRPPRLPRPRPRPSNWPRP | 0.225
79 | RRIRMRPPRLPRPRPRPSQFPRP | 0.379
80 | RRIRMRPPRLPRPRPRPSQIPRP | -0.03
81 | RRIRMRPPRLPRPRPRPSQTPRP | 0.38
82 | RRIRMRPPRLPRPRPRPSRGPRP | 0.732
83 | RRIRMRPPRLPRPRPRPSRHPRP | 0.228
84 | RRIRMRPPRLPRPRPRPSTAPRP | 0.788
85 | RRIRMRPPRLPRPRPRPSTNPRP | 0.0712
86 | RRIRMRPPRLPRPRPRPSVSPRP | -0.35
87 | RRIRMRPPRLPRPRPRPSWCPRP | 0.387
88 | RRIRMRPPRLPRPRPRPSWYPRP | -0.506
89 | RRIRMRPPRLPRPRPRPSYYPRP | -0.531
90 | RRIRMRPPRLPRPRPRPTCPPRP | 0.128
91 | RRIRMRPPRLPRPRPRPTDGPRP | -0.0062
92 | RRIRMRPPRLPRPRPRPTDNPRP | 0.188
93 | RRIRMRPPRLPRPRPRPTECPRP | 0.0996
94 | RRIRMRPPRLPRPRPRPTFGPRP | 0.374
95 | RRIRMRPPRLPRPRPRPTFNPRP | -0.283
96 | RRIRMRPPRLPRPRPRPTFSPRP | 0.386
97 | RRIRMRPPRLPRPRPRPTGLPRP | 0.961
98 | RRIRMRPPRLPRPRPRPTGWPRP | 0.687
99 | RRIRMRPPRLPRPRPRPTHSPRP | 0.483
100 | RRIRMRPPRLPRPRPRPTIEPRP | 0.43

Row | Sequence | shrunken log2 fold change
101 | RRIRMRPPRLPRPRPRPTIIPRP | -0.374
102 | RRIRMRPPRLPRPRPRPTIQPRP | 0.318
103 | RRIRMRPPRLPRPRPRPTKFPRP | 0.339
104 | RRIRMRPPRLPRPRPRPTKIPRP | 0.318
105 | RRIRMRPPRLPRPRPRPTKRPRP | 0.901
106 | RRIRMRPPRLPRPRPRPTLAPRP | 1.35
107 | RRIRMRPPRLPRPRPRPTMIPRP | -0.185
108 | RRIRMRPPRLPRPRPRPTMRPRP | 1.4
109 | RRIRMRPPRLPRPRPRPTNAPRP | 0.408
110 | RRIRMRPPRLPRPRPRPTNVPRP | -0.0668
111 | RRIRMRPPRLPRPRPRPTPCPRP | 0.746
112 | RRIRMRPPRLPRPRPRPTPGPRP | 1.13
113 | RRIRMRPPRLPRPRPRPTPVPRP | 1.14
114 | RRIRMRPPRLPRPRPRPTQQPRP | 0.54
115 | RRIRMRPPRLPRPRPRPTQSPRP | 1.03
116 | RRIRMRPPRLPRPRPRPTRWPRP | 2.21
117 | RRIRMRPPRLPRPRPRPTTFPRP | 0.00693
118 | RRIRMRPPRLPRPRPRPTVDPRP | 0.00715
119 | RRIRMRPPRLPRPRPRPTWDPRP | 0.762
120 | RRIRMRPPRLPRPRPRPTWVPRP | 0.496
121 | RRIRMRPPRLPRPRPRPTYMPRP | -0.131
122 | RRIRMRPPRLPRPRPRPVAQPRP | 0.963
123 | RRIRMRPPRLPRPRPRPVATPRP | 1.64
124 | RRIRMRPPRLPRPRPRPVAVPRP | 0.55
125 | RRIRMRPPRLPRPRPRPVDHPRP | -0.0711

Row | Sequence | shrunken log2 fold change
126 | RRIRMRPPRLPRPRPRPVEHPRP | -0.00663
127 | RRIRMRPPRLPRPRPRPVHDPRP | 0.0188
128 | RRIRMRPPRLPRPRPRPVHGPRP | 0.32
129 | RRIRMRPPRLPRPRPRPVIMPRP | -0.101
130 | RRIRMRPPRLPRPRPRPVLKPRP | 0.072
131 | RRIRMRPPRLPRPRPRPVLTPRP | 0.27
132 | RRIRMRPPRLPRPRPRPVMDPRP | 0.025
133 | RRIRMRPPRLPRPRPRPVMGPRP | 0.387
134 | RRIRMRPPRLPRPRPRPVMHPRP | 0.154
135 | RRIRMRPPRLPRPRPRPVPSPRP | 0.588
136 | RRIRMRPPRLPRPRPRPVRAPRP | 1.08
137 | RRIRMRPPRLPRPRPRPVSCPRP | 0.141
138 | RRIRMRPPRLPRPRPRPVSYPRP | -0.00671
139 | RRIRMRPPRLPRPRPRPVTGPRP | -0.00102
140 | RRIRMRPPRLPRPRPRPVYEPRP | 0.352
141 | RRIRMRPPRLPRPRPRPWDKPRP | -0.0134
142 | RRIRMRPPRLPRPRPRPWEMPRP | -0.0802
143 | RRIRMRPPRLPRPRPRPWFHPRP | -0.121
144 | RRIRMRPPRLPRPRPRPWFKPRP | -0.665
145 | RRIRMRPPRLPRPRPRPWFSPRP | -0.0415
146 | RRIRMRPPRLPRPRPRPWIAPRP | -0.00608
147 | RRIRMRPPRLPRPRPRPWIIPRP | -0.0943
148 | RRIRMRPPRLPRPRPRPWMMPRP | 0.024
149 | RRIRMRPPRLPRPRPRPWMWPRP | -0.0668
150 | RRIRMRPPRLPRPRPRPWPHPRP | 0.512
